Results taken from the supplement of paper PMC10567573.

B1: TEKT4 (parent)
chain: LREKLLEAEQSLRNLEDIHMSLEK
B2: BTBD1 (parent)
chain: YGSIHGPTDYQVNIQIIEYEKKQT

Variants of: B1
Experiment: protein stability index of a GFP-peptide fusion (GPS, HEK-293T) (PSI 1-6); higher = more stable
Details: c terminus: a fixed tail appended
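Note: lentivirally expressed fusions sorted by FACS into six bins by GFP to DsRed ratio, PSI derived from sequencing read proportions per bin multiplied by bin number.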

Protein stability index of substitutions, site by site:
E7: K 2.51, M 2.38, T 2.93, A 2.46, D 2.38, Q 2.35
S11: Y 1.83, D 2.57, F 1.96, P 4.21, H 2.75, T 2.55, I 4.94, M 1.05, L 1.83
L12: W 1.79, E 4.97, R 3.02, V 3.3, P 4.6, N 4.57
E16: P 2.71, H 1.59, I 2.7, D 2.35, A 1.41, K 2.3, L 1.47
M20: Q 1.79, C 3.03, R 2.36
K4: W 1.74, D 4.01, V 2.51, M 1.76, G 3.45
E9: K 3.17, V 2.05, C 1.85, Q 1.98
E3: M 2.88, T 1.63, S 2.47, D 2.02, Y 2.15, V 2.01
H19: R 2.42, E 2.91, G 2.02, V 2.51, L 1.96, S 3.43, N 2.93, I 1.81
E23: T 1.71, D 2.27, F 2.3, M 2.39, N 1.47, G 1.58, K 2.74, I 1.88
L1: C 3.07, A 3.67, N 4.65
L6: T 2.94, C 2.92, R 2.86, K 3.31, Y 2.61, H 3.27, M 2.83
L15: F 3.29, D 1.55, K 2.71, H 3.22, A 3.2, W 1.93, T 2.47, C 2.81, E 2.71
A8: S 3, W 1.8, F 2.52, Q 2.72, V 2.72
N14: L 1.64, R 2.78, D 2.27, C 2.26
S21: N 2.6, P 2.82, L 1.59, C 1.56
R13: P 2.45, S 1.89, I 2.6, M 2.52
R2: S 2.33, L 1.93, P 3.11, E 2.43, T 2.83
L22: H 2.89, M 2.7, V 2.09
D17: A 2.31, C 2.46, K 2.32, F 1.79, Y 1.45, Q 2.23
I18: M 1.95, Y 2.3, S 3.84, A 2.81, W 3.13, T 3.28, G 2.96
Q10: R 2.69, K 2.37, F 2.89, V 2.08, N 2.76, A 3.49
L5: C 2.44, T 4.67, V 2.66, K 4.93, S 4.68, Q 5.21
K24: E 2.53, I 1.81, Q 2.39, P 2.03, H 4, Y 1.68

Variants of: B2
Experiment: as above
Details: c terminus: a fixed tail appended

Protein stability index, by site and new letter:
N13: M 2.74, P 3.23, Y 2.19, E 2.79, V 1.87, L 2.22, G 3.34, D 2.59
E18: C 1.86, K 2.61, S 1.88, N 2.17, T 2.07, D 2.64, A 1.71, I 3.84, P 2.17
E20: T 2.25, R 2.08, A 2.39, Q 2.2, L 2.25, H 2.54, G 2.21, P 1.72, D 2.59
P7: S 2.76, H 2.65, Y 1.75, T 2.73, A 2.6, M 2.31, L 2.21, W 4.06
I16: V 3.15, C 2.96, K 3.97, A 3.8, M 3.32, S 3.58, T 3.58, E 3.81
Q15: Y 1.37, N 2.62, S 2.57, K 2.56, W 4.17, L 2.09
Q23: M 2.18, P 2.28, Y 1.93, N 2.88, T 2.13, G 2.76, A 2.33, K 2.74, W 2.56, E 2.72, R 2.51
K21: Y 1.92, E 2.7, T 2.24, R 2.25, P 1.95, G 2.04, V 1.59, A 1.82, L 1.65
T8: M 1.74, W 3.36, Y 2.56, E 2.88, Q 3.08, D 3.66, G 2.44
Y19: N 3.29, D 3.76, W 2.5, A 3.19, H 3.23, P 3.67, G 3.36, R 3.01, K 3.38, F 2.14, C 2.69, S 3.56
S3: M 2.87, Q 3.33, P 3.06, N 1.6, K 3.17, H 3.09, Y 2.15, A 2.85
Y1: A 3.35, D 3.93, H 3.45, R 3.44, G 3.66, F 2.52, N 3.32, P 3.67, S 3.79, W 2.67
H5: D 3.09, T 2.52, I 2.67, W 2.09, N 2.13, E 3.71, R 2.98
I17: E 3.69, W 2.71, D 3.63, F 2.46, Q 3.35, M 2.81, N 3.33
K22: C 1.52, H 2.03, E 2.96, Q 2.75, P 1.72, V 2.54, L 2.03
D9: I 4.42, H 1.63, Q 2.18, L 3.37, N 1.98, Y 2.08, T 2.42, V 2.24, R 2.65, M 2.23, G 1.75
G2: H 2.36, I 1.7, W 2.5, V 3.34, N 3.28
G6: L 2.6, F 1.63, T 3.19, V 2.21, Y 2.44, H 3, P 3.18, Q 3.26, A 2.96, I 2.17, E 3.54
I4: K 2.24, C 2.32, G 2.16, Y 2.94, M 2.41, V 2.63, T 2.81, Q 3.06
Q11: C 1.54, D 3.52, N 2.39, A 2.26, K 2.15, I 1.68
T24: M 2.36, A 3.1, K 3.05, R 2.69, W 2.23, N 2.9, F 1.84, G 2.57, H 2.9, I 2.08, Q 3.18
I14: R 3.53, D 3.75, P 3.77, T 3.58, G 3.32, K 3.75
V12: M 2.93, G 3.52, F 2.71, E 4.08, N 4.15
Y10: W 2.05, K 4.24, S 4.16, F 2.43, E 4.55, D 4.3, I 2.44, H 3.77
